{"source": "patent US20140370037A1", "about": "(published 2014)", "binders": {"B1": {"name": "SC16.15 (antibody, V domains shown)", "VH": "QVQLQQSGAELAKPGASVKMSCKASGYTFTRYWIHWIKQRPGQGLEWIGYINPTTVYTEFNQNFKDKATLTADKSSTTASMQLSSLTSEDSAVYYCARGGSNFFDYWGQGTTLTVSS", "VL": "DIQMTQSPASLAASVGETVAITCRASENIYYNLAWYQQKQGKSPQLLIYTANSLEDGVPSRFSGSGSGTQYSLKINSMQPEDSATYFCKQAYDVPPTFGGGTKLEIK", "notes": "murine mAb"}}, "molecular_target": "T1, human DLL3 antigen (human, UniProt Q9NYJ7 27-492, limits assumed)", "T1 construct": "also called immobilized human DLL3; recombinant human DLL3", "T1 sequence (looked up)": "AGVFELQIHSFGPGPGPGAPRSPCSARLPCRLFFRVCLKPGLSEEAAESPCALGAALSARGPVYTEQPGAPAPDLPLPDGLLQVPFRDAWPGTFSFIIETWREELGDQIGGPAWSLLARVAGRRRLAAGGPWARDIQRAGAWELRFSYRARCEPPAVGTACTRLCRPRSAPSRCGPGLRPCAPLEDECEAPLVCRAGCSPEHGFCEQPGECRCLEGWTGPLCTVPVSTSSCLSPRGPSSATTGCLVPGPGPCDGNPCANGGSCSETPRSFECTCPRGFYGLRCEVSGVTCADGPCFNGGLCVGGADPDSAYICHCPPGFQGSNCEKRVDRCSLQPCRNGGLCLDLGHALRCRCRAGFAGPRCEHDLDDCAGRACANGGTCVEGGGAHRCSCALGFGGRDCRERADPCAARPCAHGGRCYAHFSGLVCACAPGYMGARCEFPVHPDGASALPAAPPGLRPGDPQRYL", "experiment": "SPR, Biacore 2000, 25 and 12.5 nM human DLL3 antigen, 1:1 Langmuir model", "method": "In this respect the humanized constructs (CDR grafted) were compared with “traditional” chimeric antibodies comprising the murine parent (or donor) heavy and light chain variable domains and a human constant region substantially equivalent to that used in the humanized constructs. With these constructs surface plasmon resonance (SPR) was conducted using a Biacore 2000 (GE Healthcare) to identify any subtle changes in rate constants brought about by the humanization process.", "data": [{"binder": "B1", "values": [{"measurement": "Kd", "value": "~0.2", "unit": "nM"}]}]}
